Measurements reported in US20220175921A1 (Bristol-Myers Squibb, published 2022).

T1: human GITR, membrane bound (on activated human T cells or on 3A9-hGITR cells) (human, UniProt Q9Y5U5 26-241)
T1 construct: also called huGITR; TNFRSF18
T1 sequence: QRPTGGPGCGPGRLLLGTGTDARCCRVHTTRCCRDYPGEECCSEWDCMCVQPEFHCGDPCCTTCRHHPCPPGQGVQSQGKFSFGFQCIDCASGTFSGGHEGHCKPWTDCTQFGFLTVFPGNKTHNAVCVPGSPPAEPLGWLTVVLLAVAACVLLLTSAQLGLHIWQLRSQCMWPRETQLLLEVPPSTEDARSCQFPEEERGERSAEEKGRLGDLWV

T2: cynomolgus GITR, membrane bound (on activated cynomolgus T cells) (cynomolgus monkey, UniProt Q9Y5U5 26-241 (human entry))
T2 construct: also called cyno GITR
T2 chain: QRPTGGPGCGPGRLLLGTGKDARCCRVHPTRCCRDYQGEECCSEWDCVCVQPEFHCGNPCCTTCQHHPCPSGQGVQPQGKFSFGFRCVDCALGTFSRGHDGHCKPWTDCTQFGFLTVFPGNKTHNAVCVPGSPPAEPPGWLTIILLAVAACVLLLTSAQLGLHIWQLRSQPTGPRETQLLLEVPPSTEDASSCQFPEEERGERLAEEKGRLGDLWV

T3: recombinant human GITR/Fc (rHGITR/Fc, R&D systems CAT #689-GR) (human, UniProt Q9Y5U5 26-161, limits assumed)
T3 construct: Bought; also called soluble GITR
T3 chain: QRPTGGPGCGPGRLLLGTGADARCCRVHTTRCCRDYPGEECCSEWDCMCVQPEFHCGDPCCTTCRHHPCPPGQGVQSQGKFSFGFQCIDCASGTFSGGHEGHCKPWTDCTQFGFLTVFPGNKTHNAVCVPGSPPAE

T4: mouse GITR (mouse, UniProt O35714 20-228)
T4 construct: whole, on cells; also called muGITR
T4 sequence (looked up): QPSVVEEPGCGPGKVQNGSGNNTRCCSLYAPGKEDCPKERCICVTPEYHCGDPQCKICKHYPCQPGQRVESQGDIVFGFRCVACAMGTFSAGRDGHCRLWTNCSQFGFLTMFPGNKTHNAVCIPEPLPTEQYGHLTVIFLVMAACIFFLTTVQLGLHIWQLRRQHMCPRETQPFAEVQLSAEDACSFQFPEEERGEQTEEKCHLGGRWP


Columns and labels:
[1] = biological target: T1, human GITR, membrane bound (on …); test: FACS on activated human T cells
Protocol: (§1) Peripheral Blood Mononuclear Cells (PBMCs) isolated from human or cynomolgus monkey were activated with plate-coated anti-CD3 antibody (Clone: UCHT1 for human T cell activation; Clone: SP34 for cynomolgus T cell activation; both from BD Biosciences) and soluble anti-CD28 antibody (Clone:CD28.2 for both human and cynomolgus monkey, BD Biosciences) for 4 days (human)/or 5 days (cynomolgus monkey). The cells were tested for GITR mAb binding in a fluorescence-activated cell sorting (FACS)-based assay using a phycoerythrin (PE)-conjugated anti-human IgG antibody (Jackson ImmunoResearch). The samples were analyzed on a BD FACS Canto Flow Cytometer.

[2] = biological target: T2, cynomolgus GITR, membrane bound (on …); test: FACS on activated cynomolgus T cells
Protocol: as §1

[3] = biological target: T3, recombinant human GITR/Fc (rHGITR/Fc, …); test: SPR; mAb captured (anti-kappa), rHGITR/Fc analyte
Protocol: Binding of anti-GITR antibodies to soluble GITR was determined by Biacore. […] The capture concentration of the mAb/volume was 2-40 μg/mL (5 μL at 10 μL/min). The antigen association time was 5 minutes at 15 μL/min, the antigen dissociation time was 6 minutes, and regeneration was performed with 50 mM HCl/50 mM NaOH (12 μL each at 100 μL/min).

[4] = biological target: T3, recombinant human GITR/Fc (rHGITR/Fc, …); test: SPR binning with rHGITR/Fc
Protocol: Each antibody concentration series was divided into two halves. […] Complexes were incubated for 2 hours. 40 μL complexes were injected on the antibody coated surface at a 30 μL/min flow rate. […] The data was analyzed using Microsoft Excel where the concentration series of antibodies were plotted against the corresponding response unit to obtain titration curves.

[5] = biological target: T1, human GITR, membrane bound (on …); test: cell-based or functional assay
[6] = biological target: T1, human GITR, membrane bound (on …); test: FACS on PHA-activated human CD4+ and CD8+ T cells, anti-HA detection
Source text: (§2) The samples were acquired on a FACS Canto Flow Cytometer (BD, San Jose) and analyzed with FlowJo software (Tree Star, Inc, Ashland, Oreg.).

[7] = biological target: T1, human GITR, membrane bound (on …); test: FACS; pre-bound GITR-L against 0.5 ug/mL 28F3-hIgG1 (competitor) on activated T cells; partial inhibition
Source text: as §2

[8] = biological target: T4, mouse GITR; test: stated in the Treg suppression assay with huGITR KI and wildtype mouse T cells
Source text: From the previous experiment it was not clear whether the increased Teff proliferation was due to the anti-GITR antibodies acting on Treg and/or Teff cells. To address this question, human GITR “knock-in” (huGITR KI) mice were used. In these mice, the gene encoding mouse GITR, Tnfrsf18, was replaced with the human TNFRSF18 gene, and human GITR is expressed similarly to muGITR in wildtype mice; human GITR is expressed on both Teff and Treg cells with higher levels on the latter.
Treg and Teff cells were sorted based on CD4 and CD25 expression from huGITR KI and WT mice.

Row | EC50 [1] [nM] | Kd [3] [nM] | koff [3] [s⁻¹] | kon [3] [M⁻¹ s⁻¹] | Binder | further results
1 | 0.0492 |  |  |  | 3C3 (antibody, human IgG1, kappa, V domains shown, Hybridoma-derived; also called GITR.3; 3C3-1) VH: QVQLQQWGAGLLKPSETLSLTCAVYGGSFSGYYWTWIRQPPGKGLEWIGKINHSGNTNYNPSLKSRVTISVDTSKNQFSLKLSSVTAADTAVYYCARLGAFDAFDIWGQGTMVTVSS VL: DIQMTQSPSSLSASVGDRVTITCRASQGISSWLAWYQQKPEKAPKSLIYAASSLQSGVPSRFSGSGSGTDFTLTISSLQPEDFATYYCQQYNSYPYTFGQGTKLEIKR | binding result [2]: no binding
2 | 0.146 | 13.3 | 0.00241 | 182000 | 18E10 (antibody, human IgG2, kappa, V domains shown, Hybridoma-derived human antibody) VH: QVQLVESGGGVVQPGRSLRLSCAASGFTFSSYGMHWVRQAPGKGLEWVAVIWYAGSNKYYADSVKGRFTISRDNSKNTLYLQMNSLRAEDTAVYYCARGGRIAVAFYYSMDVWGQGTTVTVSS VL: DIQMTQSPSSLSASVGDRVTITCRASQGISSWLAWYQQKPEKAPKSLIYAASSLQSGVPSRFSGSGSGTDFTLTISSLQPEDFATYYCQQYNSYPYTFGQGTKLEIKR | EC50 [2]: 0.913 nM
3 |  | 12 | 0.00147 | 123000 | 2G6 (antibody, human IgG2, kappa, V domains shown, Hybridoma-derived human antibody) VH: QVQLVESGGGVVQPGGSLRLSCAASGFILSDYGMHWVRQAPGKGLEWVTVIWYDGSNKFYVDSVKGRFTISRDNSKNTLYLQMNSLRVEDTAVYYCARGGRLATGHFYYVMDVWGQGTTVTVSS VL: DIQMTQSPSSLSASVGDRVTITCRASQGISSWLAWYQQKPEKAPKSLIYAASSLQSGVPSRFSGSGSGTDFTLTISSLQPEDFATYYCQQYNSYPYTFGQGTKLEIKR | 
4 |  |  |  |  | 14E3 (antibody, V domains shown, Hybridoma-derived human antibody) VH: QVQLQQWGAGLLKPSETLSLTCAVYGGSFSGYYWSWIRQPPGKGLEWIGEINHSGNTYYNPSLKSRVTISVDTSKNQLSLKLSSVTAADTAVYYCARFGSNDAFDIWGQGTMVTVSS VL: DIQMTQSPSSLSASVGDRVTITCRASQGISSWLAWYQQKPEKAPKSLIYAASSLQSGVPSRFSGSGSGTDFTLTISSLQPEDFATYYCQQYNSYPPTFGQGTKVEIKR | binding result [4]: binds
5 | 0.363 | 16.3 | 0.0045 | 276000 | 19D3 (antibody, human IgG2, kappa, V domains shown, Hybridoma-derived human antibody) VH: QVQLVESGGGVVQPGRSLRLSCAASGFTFSSYGFHWVRQAPGKGLEWVAVIWYAGSNKFYADSVKGRFTISRDNSKNTLYLQMNSLRAEDTAVYYCARGGQLDYYYYYVMDVWGQGTTVTVSS VL: DIQMTQSPSSLSASVGDRVTITCRASQGISSWLAWYQQKPEKAPKSLIYAASSLQSGVPSRFSGSGSGTDFTLTISSLQPEDFATYYCQQYNSYPYTFGQGTKLEIKR | 
6 |  |  |  |  | GITR.6.G2.G1f (antibody, human IgG2) heavy: not shown VL: AIQLTQSPSSLSASVGDRVTITCRASQGISSALAWYQQKPGKAPKLLIYDASSLESGVPSRFSGSGSGTDFTLTISSLQPEDFATYYCQQFNSYPYTFGQGTKLEIK | NFKB signaling (phospho-p65) EC50, CD4+ T cells [5]: 9 nM; NFKB signaling (phospho-p65) EC50, CD8+ T cells [5]: 3.77 nM; NFKB signaling (phospho-p65) Emax, CD4+ T cells [5]: 100%; NFKB signaling (phospho-p65) Emax, CD8+ T cells [5]: 92%
7 |  |  |  |  | recombinant human GITR ligand trimer (R&D Systems 6987-GL) (ligand, Bought soluble trimer, detected through an HA tag; also called rhGITR-L; hGITR-L trimer) LQLETAKEPCMAKFGPLPSKWQMASSEPPCVNKVSDWKLEILQNGLYLIYGQVAPNANYNDVAPFEVRLYKNKDMIQTLTNKSKIQNVGGTYELHVGDTIDLIFNSEHQVLKNNTYWGIILLANPQFIS | EC50 [6]: 16 ng/mL; IC50 [7]: 2.4 ng/mL
8 | 0.192 | 14.8 | 0.00589 | 397000 | 28F3 (antibody, human IgG2, kappa, also called 13H2; 28F3 (IgG2)) heavy: QVQLVESGGGVVQPGRSLRLSCAASGFTFSSYGMHWVRQAPGKGLEWVAVIWYEGSNKYYADSVKGRFTISRDNSKNTLYLQMNSLRAEDTAVYYCARGGSMVRGDYYYGMDVWGQGTTVTVSSASTKGPSVFPLAPCSRSTSESTAALGCLVKDYFPEPVTVSWNSGALTSGVHTFPAVLQSSGLYSLSSVVTVPSSNFGTQTYTCNVDHKPSNTKVDKTVERKCCVECPPCPAPPVAGPSVFLFPPKPKDTLMISRTPEVTCVVVDVSHEDPEVQFNWYVDGVEVHNAKTKPREEQFNSTFRVVSVLTVVHQDWLNGKEYKCKVSNKGLPAPIEKTISKTKGQPREPQVYTLPPSREEMTKNQVSLTCLVKGFYPSDIAVEWESNGQPENNYKTTPPMLDSDGSFFLYSKLTVDKSRWQQGNVFSCSVMHEALHNHYTQKSLSLSPGK light: not shown | NFKB signaling (phospho-p65) EC50, CD4+ T cells [5]: 12.8 nM; NFKB signaling (phospho-p65) EC50, CD8+ T cells [5]: 9 nM; NFKB signaling (phospho-p65) Emax, CD4+ T cells [5]: 69%; NFKB signaling (phospho-p65) Emax, CD8+ T cells [5]: 85%; EC50 [2]: 1.04 nM; binding result [8]: no binding
9 |  | 1.87 | 0.000715 | 383000 | 6G10 (antibody, human IgG2, kappa, V domains shown, Hybridoma-derived human antibody) VH: not shown VL: AIQLTQSPSSLSASVGDRVTITCRASQGISSALAWYQQKPGKAPKLLIYDASSLESGVPSRFSGSGSGTDFTLTISSLQPEDFATYYCQQFNSYPYTFGQGTKLEIKR | 
10 |  |  |  |  | 8A6 (antibody, human IgG2, kappa, V domains shown, Hybridoma-derived human antibody) VH: QVQLVESGGGVVQPGRSLRLSCTASGFTFSSYGMQWVRQAPGKGLEWVAVIWYEGSNKYYADSVKGRFTISRENSKNTLYLQMNSLRAEDTAVYYCARGGLMVRGLFYYGMDVWGQGTTVTVSS VL: AIQLTQSPSSLSASVGDRVTITCRASQGISSALAWYQQKPGKAPKFLIYDASSLESGVPSRFSGSGSGTDFTLTISSLQPEDFATYYCQQFNSYPYTFGQGTKLEIKR | binding result [4]: binds
